1 molecule from article PMC5393055 (Genes & Development, 2017) can be followed below.

In the experiment the target is T1, full-length GST-SUUR (Drosophila, UniProt Q9VTE2 1-962).
T1 sequence (looked up): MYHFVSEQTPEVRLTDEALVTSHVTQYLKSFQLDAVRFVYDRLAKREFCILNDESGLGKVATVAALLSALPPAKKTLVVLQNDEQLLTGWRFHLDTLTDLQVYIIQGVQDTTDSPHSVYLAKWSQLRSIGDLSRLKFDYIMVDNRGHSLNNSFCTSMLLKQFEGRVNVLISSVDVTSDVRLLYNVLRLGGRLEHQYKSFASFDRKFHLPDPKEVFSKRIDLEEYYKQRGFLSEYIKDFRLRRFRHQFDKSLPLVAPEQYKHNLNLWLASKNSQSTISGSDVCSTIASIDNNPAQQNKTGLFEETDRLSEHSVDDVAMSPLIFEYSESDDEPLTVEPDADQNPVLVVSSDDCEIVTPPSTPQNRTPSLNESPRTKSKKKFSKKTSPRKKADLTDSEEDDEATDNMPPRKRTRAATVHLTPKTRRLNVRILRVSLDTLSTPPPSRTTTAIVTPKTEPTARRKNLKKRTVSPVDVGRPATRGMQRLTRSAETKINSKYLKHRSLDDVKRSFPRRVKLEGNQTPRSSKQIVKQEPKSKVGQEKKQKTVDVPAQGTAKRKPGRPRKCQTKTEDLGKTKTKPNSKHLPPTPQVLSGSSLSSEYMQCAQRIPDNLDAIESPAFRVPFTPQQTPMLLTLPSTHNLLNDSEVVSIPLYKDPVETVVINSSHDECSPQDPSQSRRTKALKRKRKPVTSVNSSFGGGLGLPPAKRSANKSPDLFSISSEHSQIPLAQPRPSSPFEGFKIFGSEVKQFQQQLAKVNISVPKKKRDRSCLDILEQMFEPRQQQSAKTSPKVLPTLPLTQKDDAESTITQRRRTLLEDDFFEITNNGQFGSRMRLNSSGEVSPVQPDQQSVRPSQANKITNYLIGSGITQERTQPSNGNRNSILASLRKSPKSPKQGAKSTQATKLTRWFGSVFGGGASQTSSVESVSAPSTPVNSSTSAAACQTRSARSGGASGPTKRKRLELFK
Kind of experiment: pull-down.

B1: recombinant untagged full-length H1 (natural protein, Drosophila, UniProt P02255 1-256, looked up)
chain: MSDSAVATSASPVAAPPATVEKKVVQKKASGSAGTKAKKASATPSHPPTQQMVDASIKNLKERGGSSLLAIKKYITATYKCDAQKLAPFIKKYLKSAVVNGKLIQTKGKGASGSFKLSASAKKEKDPKAKSKVLSAEKKVQSKKVASKKIGVSSKKTAVGAADKKPKAKKAVATKKTAENKKTEKAKAKDAKKTGIIKSKPAATKAKVTAAKPKAVVAKASKAKPAVSAKPKKTVKKASVSATAKKPKAKTTAAKK
As to B1, the binding result is “binds”.
